Measurements reported in publication PMC10518940.

Biological target: T1, HA-CXCR4-Rluc8 (human), P61073
T1 chain: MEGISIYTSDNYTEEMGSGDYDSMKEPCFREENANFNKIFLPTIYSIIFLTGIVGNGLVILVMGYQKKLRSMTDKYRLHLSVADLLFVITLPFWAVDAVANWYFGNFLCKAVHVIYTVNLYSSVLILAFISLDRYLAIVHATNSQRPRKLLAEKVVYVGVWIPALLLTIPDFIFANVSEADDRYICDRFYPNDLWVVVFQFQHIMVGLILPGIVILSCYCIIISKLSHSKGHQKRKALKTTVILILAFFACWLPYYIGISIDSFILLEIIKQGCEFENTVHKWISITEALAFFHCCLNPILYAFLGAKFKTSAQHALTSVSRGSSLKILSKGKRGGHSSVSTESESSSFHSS
Assay: FRET or BRET; BRET2 saturation in HEK293A cells: fixed amount of GPCR-Rluc8 plasmid, increasing amounts of GPCR-GFP2 plasmid (0 to 390 ng); coelenterazine 400a 5 μM; BRET50 from the net BRET ratio
Conditions: remark: other sources report otherwise

BRET50: 0.244
B1: CXCR4-GFP2, P61073 1-352 (receptor)
chain: T1 chain
